In PMC4267655, “Brr2p carboxy-terminal Sec63 domain modulates Prp16 splicing RNA helicase” (Nucleic Acids Research, 2014):

Molecular target: Brr2 H2-Sec63-2p L1951P, Gal4AD-prey fusion, P32639
Test: Y2H interaction assay
Settings: chain shown with the change; growth on -LWH medium with 3-AT; parent: 50.0

Brr2 H2-Sec63-2p L1951P, Gal4AD-prey fusion, P32639, sequence (P32639 whole entry L1951P, the tested form may be a part): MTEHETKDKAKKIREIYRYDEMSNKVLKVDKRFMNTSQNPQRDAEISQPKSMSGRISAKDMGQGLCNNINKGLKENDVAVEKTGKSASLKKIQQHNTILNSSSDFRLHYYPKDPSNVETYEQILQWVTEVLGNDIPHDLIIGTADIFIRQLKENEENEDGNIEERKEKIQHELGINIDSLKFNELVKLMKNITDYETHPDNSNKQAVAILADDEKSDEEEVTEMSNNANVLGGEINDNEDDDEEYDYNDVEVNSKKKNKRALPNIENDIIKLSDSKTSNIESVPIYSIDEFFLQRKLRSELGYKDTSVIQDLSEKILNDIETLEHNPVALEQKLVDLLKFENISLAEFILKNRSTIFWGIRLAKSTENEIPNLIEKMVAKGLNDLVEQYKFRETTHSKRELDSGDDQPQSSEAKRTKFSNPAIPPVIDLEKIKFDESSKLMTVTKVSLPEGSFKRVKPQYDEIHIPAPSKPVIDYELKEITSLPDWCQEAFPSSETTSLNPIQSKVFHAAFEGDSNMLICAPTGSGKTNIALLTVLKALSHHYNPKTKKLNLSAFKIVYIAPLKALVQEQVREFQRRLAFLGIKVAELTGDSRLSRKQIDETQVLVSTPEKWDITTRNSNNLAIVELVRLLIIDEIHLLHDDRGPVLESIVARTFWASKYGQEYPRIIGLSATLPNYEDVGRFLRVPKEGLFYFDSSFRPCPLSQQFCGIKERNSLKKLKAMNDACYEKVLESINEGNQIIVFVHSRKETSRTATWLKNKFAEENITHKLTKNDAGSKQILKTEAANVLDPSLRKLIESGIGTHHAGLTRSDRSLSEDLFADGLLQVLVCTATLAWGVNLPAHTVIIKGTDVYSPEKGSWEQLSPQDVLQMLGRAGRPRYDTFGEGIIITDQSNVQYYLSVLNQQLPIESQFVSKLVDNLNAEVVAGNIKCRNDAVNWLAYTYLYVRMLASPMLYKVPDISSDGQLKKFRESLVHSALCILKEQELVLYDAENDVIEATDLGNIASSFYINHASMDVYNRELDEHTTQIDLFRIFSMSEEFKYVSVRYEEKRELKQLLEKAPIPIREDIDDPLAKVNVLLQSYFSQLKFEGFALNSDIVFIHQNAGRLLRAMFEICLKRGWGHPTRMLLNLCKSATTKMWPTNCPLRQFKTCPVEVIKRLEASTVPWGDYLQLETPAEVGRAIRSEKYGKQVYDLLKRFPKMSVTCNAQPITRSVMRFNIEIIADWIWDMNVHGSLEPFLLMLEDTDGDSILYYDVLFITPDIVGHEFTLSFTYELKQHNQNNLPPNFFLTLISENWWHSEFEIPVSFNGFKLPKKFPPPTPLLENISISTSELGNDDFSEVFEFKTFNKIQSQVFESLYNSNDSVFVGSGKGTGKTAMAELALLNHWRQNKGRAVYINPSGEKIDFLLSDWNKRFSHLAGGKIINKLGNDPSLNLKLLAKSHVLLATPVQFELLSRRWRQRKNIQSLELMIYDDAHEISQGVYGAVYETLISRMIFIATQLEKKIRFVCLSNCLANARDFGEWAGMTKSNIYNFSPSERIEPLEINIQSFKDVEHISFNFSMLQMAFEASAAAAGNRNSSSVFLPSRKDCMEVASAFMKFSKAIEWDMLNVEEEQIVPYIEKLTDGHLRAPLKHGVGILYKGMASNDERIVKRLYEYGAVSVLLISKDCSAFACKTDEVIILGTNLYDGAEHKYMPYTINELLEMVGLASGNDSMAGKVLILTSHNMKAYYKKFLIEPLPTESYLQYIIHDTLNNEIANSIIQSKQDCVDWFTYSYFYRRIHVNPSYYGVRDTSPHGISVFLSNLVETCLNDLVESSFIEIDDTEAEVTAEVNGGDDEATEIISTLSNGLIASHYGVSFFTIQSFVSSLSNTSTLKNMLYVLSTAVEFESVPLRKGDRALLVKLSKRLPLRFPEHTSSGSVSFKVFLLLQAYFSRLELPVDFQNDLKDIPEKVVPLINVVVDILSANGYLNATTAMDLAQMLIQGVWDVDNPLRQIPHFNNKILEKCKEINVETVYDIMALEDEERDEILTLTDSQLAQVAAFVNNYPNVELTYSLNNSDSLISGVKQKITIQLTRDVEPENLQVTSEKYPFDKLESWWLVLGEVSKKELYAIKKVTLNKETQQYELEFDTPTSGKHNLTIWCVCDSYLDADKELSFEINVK

| Binder | other: maximal [3AT] tolerated [µM] |
| --- | --- |
| m21; m1 Prp16p:R456K; Prp16p:G691R; Brr2 H2-Sec63-2:L1951P (protein) MGHSGREERIKDIFKELTSKELTPGLLLTLQKLAQKPNTNLEQFIASCKALTKLSSNNPIIFNELLELLKNKSEEDSTGPKKIAPSINKRKKFKIQLDLDDNEDELDSPVQKKPAPTRTLFKRIDKLKAKQLRQYSPTVKDPSPNSEQQTQNGHAETKDYEPTRSEVVEEDREWYDNDDDYGNLVPEPLSELPEEAKLLPVIRNIDNDDALRNTVQLYPIPLKQRMEWIPPFLSKFALENKVPTSIIIGSISETSSQVSALSMVNPFRNPDSEFSANAKRGSKLVALRRINMEHIQQSRDNTTVLNTAMGEVLGLENNNKAKDKSNQKICDDTALFTPSKDDIKHTKEQLPVFRCRSQLLSLIRENQVVVIIGETGSGKTTQLAQYLYEEGYANDRGKSIVVTQPRRVAAISVAKRVAMEMQVPLGKEVGYSIRFEDVTDSECTKLKFVTDGILLKETLLDDTLDKYSCVIIDEAHERSLNTDILLGFFKILLARRRDLKLIITSATMNAKKFSAFFGNAPQFTIPGRTFPVQTIYTSNPVQDYVEAAVSQAVKIHLANDCSSGDILIFMTGQEDIETTFDTLQEKFLQVYSKKFGTANFEEINDIEILPIYSALPADLQFKIFQDLHGTKRKIIIATNIAETSLTIKGIRYVIDCGYSKLKVYNPKIGLDSLVITPISKANADQRSGRARRTAPGTAYRLYTEDTFKEDMYLQTIPEIQRTNLSNTLLLLKSLDVTDELSKFPFIDKPPLQTFLSSLYELWFIGAIDTSGQLTPLGLQMAKFPLQPSLSKILLIAVRNGCSDEMLTIVSMLSVPQVFYRPKERQKEADIARNKFFIAKSDHLTLLNVFEQWRANNFSSHWCNKHFVQYKSLVRARDIRDQLLTILKSQKIPVISSGKDWDIIKKCICSGFAHQAAKITGLRNYVHLKTGVSVQLHPTSALHGLGDLPPYVVYHELLMTSKEYICCVTSVDPFWLMEYGGLLYDIKRIKNDQEATTTGLFGEHYEHTLDKVEDDIDINIRRCKDMRDSVIQELKMTDNSNKEDKKQKTKKQNILNGKENSMKPFKRRKPFF | 0 |
| m21; m1 Prp16p:R686I; Brr2 H2-Sec63-2:L1951P (protein) MGHSGREERIKDIFKELTSKELTPGLLLTLQKLAQKPNTNLEQFIASCKALTKLSSNNPIIFNELLELLKNKSEEDSTGPKKIAPSINKRKKFKIQLDLDDNEDELDSPVQKKPAPTRTLFKRIDKLKAKQLRQYSPTVKDPSPNSEQQTQNGHAETKDYEPTRSEVVEEDREWYDNDDDYGNLVPEPLSELPEEAKLLPVIRNIDNDDALRNTVQLYPIPLKQRMEWIPPFLSKFALENKVPTSIIIGSISETSSQVSALSMVNPFRNPDSEFSANAKRGSKLVALRRINMEHIQQSRDNTTVLNTAMGEVLGLENNNKAKDKSNQKICDDTALFTPSKDDIKHTKEQLPVFRCRSQLLSLIRENQVVVIIGETGSGKTTQLAQYLYEEGYANDRGKSIVVTQPRRVAAISVAKRVAMEMQVPLGKEVGYSIRFEDVTDSECTKLKFVTDGILLRETLLDDTLDKYSCVIIDEAHERSLNTDILLGFFKILLARRRDLKLIITSATMNAKKFSAFFGNAPQFTIPGRTFPVQTIYTSNPVQDYVEAAVSQAVKIHLANDCSSGDILIFMTGQEDIETTFDTLQEKFLQVYSKKFGTANFEEINDIEILPIYSALPADLQFKIFQDLHGTKRKIIIATNIAETSLTIKGIRYVIDCGYSKLKVYNPKIGLDSLVITPISKANADQISGRAGRTAPGTAYRLYTEDTFKEDMYLQTIPEIQRTNLSNTLLLLKSLDVTDELSKFPFIDKPPLQTFLSSLYELWFIGAIDTSGQLTPLGLQMAKFPLQPSLSKILLIAVRNGCSDEMLTIVSMLSVPQVFYRPKERQKEADIARNKFFIAKSDHLTLLNVFEQWRANNFSSHWCNKHFVQYKSLVRARDIRDQLLTILKSQKIPVISSGKDWDIIKKCICSGFAHQAAKITGLRNYVHLKTGVSVQLHPTSALHGLGDLPPYVVYHELLMTSKEYICCVTSVDPFWLMEYGGLLYDIKRIKNDQEATTTGLFGEHYEHTLDKVEDDIDINIRRCKDMRDSVIQELKMTDNSNKEDKKQKTKKQNILNGKENSMKPFKRRKPFF | 200 |
| m21; m1 Prp16p:Q685H; Brr2 H2-Sec63-2:L1951P (protein) MGHSGREERIKDIFKELTSKELTPGLLLTLQKLAQKPNTNLEQFIASCKALTKLSSNNPIIFNELLELLKNKSEEDSTGPKKIAPSINKRKKFKIQLDLDDNEDELDSPVQKKPAPTRTLFKRIDKLKAKQLRQYSPTVKDPSPNSEQQTQNGHAETKDYEPTRSEVVEEDREWYDNDDDYGNLVPEPLSELPEEAKLLPVIRNIDNDDALRNTVQLYPIPLKQRMEWIPPFLSKFALENKVPTSIIIGSISETSSQVSALSMVNPFRNPDSEFSANAKRGSKLVALRRINMEHIQQSRDNTTVLNTAMGEVLGLENNNKAKDKSNQKICDDTALFTPSKDDIKHTKEQLPVFRCRSQLLSLIRENQVVVIIGETGSGKTTQLAQYLYEEGYANDRGKSIVVTQPRRVAAISVAKRVAMEMQVPLGKEVGYSIRFEDVTDSECTKLKFVTDGILLRETLLDDTLDKYSCVIIDEAHERSLNTDILLGFFKILLARRRDLKLIITSATMNAKKFSAFFGNAPQFTIPGRTFPVQTIYTSNPVQDYVEAAVSQAVKIHLANDCSSGDILIFMTGQEDIETTFDTLQEKFLQVYSKKFGTANFEEINDIEILPIYSALPADLQFKIFQDLHGTKRKIIIATNIAETSLTIKGIRYVIDCGYSKLKVYNPKIGLDSLVITPISKANADHRSGRAGRTAPGTAYRLYTEDTFKEDMYLQTIPEIQRTNLSNTLLLLKSLDVTDELSKFPFIDKPPLQTFLSSLYELWFIGAIDTSGQLTPLGLQMAKFPLQPSLSKILLIAVRNGCSDEMLTIVSMLSVPQVFYRPKERQKEADIARNKFFIAKSDHLTLLNVFEQWRANNFSSHWCNKHFVQYKSLVRARDIRDQLLTILKSQKIPVISSGKDWDIIKKCICSGFAHQAAKITGLRNYVHLKTGVSVQLHPTSALHGLGDLPPYVVYHELLMTSKEYICCVTSVDPFWLMEYGGLLYDIKRIKNDQEATTTGLFGEHYEHTLDKVEDDIDINIRRCKDMRDSVIQELKMTDNSNKEDKKQKTKKQNILNGKENSMKPFKRRKPFF | 0 |
| m21; m1 Prp16p:D473E; Brr2 H2-Sec63-2:L1951P (protein) MGHSGREERIKDIFKELTSKELTPGLLLTLQKLAQKPNTNLEQFIASCKALTKLSSNNPIIFNELLELLKNKSEEDSTGPKKIAPSINKRKKFKIQLDLDDNEDELDSPVQKKPAPTRTLFKRIDKLKAKQLRQYSPTVKDPSPNSEQQTQNGHAETKDYEPTRSEVVEEDREWYDNDDDYGNLVPEPLSELPEEAKLLPVIRNIDNDDALRNTVQLYPIPLKQRMEWIPPFLSKFALENKVPTSIIIGSISETSSQVSALSMVNPFRNPDSEFSANAKRGSKLVALRRINMEHIQQSRDNTTVLNTAMGEVLGLENNNKAKDKSNQKICDDTALFTPSKDDIKHTKEQLPVFRCRSQLLSLIRENQVVVIIGETGSGKTTQLAQYLYEEGYANDRGKSIVVTQPRRVAAISVAKRVAMEMQVPLGKEVGYSIRFEDVTDSECTKLKFVTDGILLRETLLDDTLDKYSCVIIEEAHERSLNTDILLGFFKILLARRRDLKLIITSATMNAKKFSAFFGNAPQFTIPGRTFPVQTIYTSNPVQDYVEAAVSQAVKIHLANDCSSGDILIFMTGQEDIETTFDTLQEKFLQVYSKKFGTANFEEINDIEILPIYSALPADLQFKIFQDLHGTKRKIIIATNIAETSLTIKGIRYVIDCGYSKLKVYNPKIGLDSLVITPISKANADQRSGRAGRTAPGTAYRLYTEDTFKEDMYLQTIPEIQRTNLSNTLLLLKSLDVTDELSKFPFIDKPPLQTFLSSLYELWFIGAIDTSGQLTPLGLQMAKFPLQPSLSKILLIAVRNGCSDEMLTIVSMLSVPQVFYRPKERQKEADIARNKFFIAKSDHLTLLNVFEQWRANNFSSHWCNKHFVQYKSLVRARDIRDQLLTILKSQKIPVISSGKDWDIIKKCICSGFAHQAAKITGLRNYVHLKTGVSVQLHPTSALHGLGDLPPYVVYHELLMTSKEYICCVTSVDPFWLMEYGGLLYDIKRIKNDQEATTTGLFGEHYEHTLDKVEDDIDINIRRCKDMRDSVIQELKMTDNSNKEDKKQKTKKQNILNGKENSMKPFKRRKPFF | 0 |
| m21; m1 Prp16p:R686Q; Brr2 H2-Sec63-2:L1951P (protein) MGHSGREERIKDIFKELTSKELTPGLLLTLQKLAQKPNTNLEQFIASCKALTKLSSNNPIIFNELLELLKNKSEEDSTGPKKIAPSINKRKKFKIQLDLDDNEDELDSPVQKKPAPTRTLFKRIDKLKAKQLRQYSPTVKDPSPNSEQQTQNGHAETKDYEPTRSEVVEEDREWYDNDDDYGNLVPEPLSELPEEAKLLPVIRNIDNDDALRNTVQLYPIPLKQRMEWIPPFLSKFALENKVPTSIIIGSISETSSQVSALSMVNPFRNPDSEFSANAKRGSKLVALRRINMEHIQQSRDNTTVLNTAMGEVLGLENNNKAKDKSNQKICDDTALFTPSKDDIKHTKEQLPVFRCRSQLLSLIRENQVVVIIGETGSGKTTQLAQYLYEEGYANDRGKSIVVTQPRRVAAISVAKRVAMEMQVPLGKEVGYSIRFEDVTDSECTKLKFVTDGILLRETLLDDTLDKYSCVIIDEAHERSLNTDILLGFFKILLARRRDLKLIITSATMNAKKFSAFFGNAPQFTIPGRTFPVQTIYTSNPVQDYVEAAVSQAVKIHLANDCSSGDILIFMTGQEDIETTFDTLQEKFLQVYSKKFGTANFEEINDIEILPIYSALPADLQFKIFQDLHGTKRKIIIATNIAETSLTIKGIRYVIDCGYSKLKVYNPKIGLDSLVITPISKANADQQSGRAGRTAPGTAYRLYTEDTFKEDMYLQTIPEIQRTNLSNTLLLLKSLDVTDELSKFPFIDKPPLQTFLSSLYELWFIGAIDTSGQLTPLGLQMAKFPLQPSLSKILLIAVRNGCSDEMLTIVSMLSVPQVFYRPKERQKEADIARNKFFIAKSDHLTLLNVFEQWRANNFSSHWCNKHFVQYKSLVRARDIRDQLLTILKSQKIPVISSGKDWDIIKKCICSGFAHQAAKITGLRNYVHLKTGVSVQLHPTSALHGLGDLPPYVVYHELLMTSKEYICCVTSVDPFWLMEYGGLLYDIKRIKNDQEATTTGLFGEHYEHTLDKVEDDIDINIRRCKDMRDSVIQELKMTDNSNKEDKKQKTKKQNILNGKENSMKPFKRRKPFF | 200 |
